Broadly, the koff is the rate constant with which the complex falls apart. Low values mean a long-lived complex, high ones a short-lived complex. A word on the kon: it is a measure of how fast the partners come together. The term pKd denotes the Kd on a negative log10 scale, so that one unit is a factor of ten. A low value points to a high Kd.

pKd: −log10 of the molar value.

For test [1], the target named is recP12-Cd4d3/4-bio (Plasmodium falciparum). Put plainly: SPR; BIAcore T100, 37°C; recP12 captured on a streptavidin chip; two-fold dilutions from 3.6 µM recP41-Cd4d3/4-6H at 100 µL/min; kinetic analysis, 1:1 binding model.
For test [2] the target is unchanged. Put plainly: SPR; BIAcore T100, 37°C; recP12-Cd4d3/4-bio captured on a streptavidin chip, biotinylated Cd4d3/4 as reference; serial dilutions of recP41-Cd4d3/4-6H at 10 µL/min; equilibrium analysis, Langmuir isotherm. (In SPR one partner is held on a chip, and binding of the other changes the refractive index at the surface.)

With recP41-Cd4d3/4-6H (domain or fragment), in test [1], the koff amounted to 0.0212 s⁻¹ and the kon turned out to be 134000 M⁻¹ s⁻¹. This substance gave a pKd in test [2] of 6.51.

These data come from PMC3407074.
